The results in this text go back to patent US20220017611A1 (INSERM INSTITUTE NATIONAL DE LA SANT ET DE LA RECHERCHE M …, published 2022).

Like-named read-outs stand apart in the source and are kept apart here. A value given as a limit tells only on which side of the number the result lay.

Assay [1] addresses T1, recombinant full-length Tau protein, longest isoform (Tau 2N4R) (human, UniProt P10636-8 1-441, limits assumed, biotinylated with NHS-biotin for SPR; 15N-labelled for NMR). Kind of assay: cell-based or functional assay.
Assay [2] deals with T1, recombinant full-length Tau protein, …. Kind of assay: SPR (Biacore T200), single-cycle kinetics, biotinylated Tau on streptavidin chip, VHH injected 0.125-2 µM. The method, then:
(§1) Affinity measurements were performed on a BIAcore T200 optical biosensor instrument (GE Healthcare). Recombinant Tau proteins were biotinylated with 5 molar excess of NHS-biotin conjugates (Thermofisher) during 4 hours at 4° C. Capture of biotinylated Tau was performed on a streptavidin SA sensorchip in HBS-EP+ buffer (GE Healthcare). One flow cell was used as a reference to evaluate nonspecific binding and provide background correction. Biotinylated-Tau was injected at a flow-rate of 30 μL/min, until the total amount of captured Tau reached 500 resonance units (RUs). VHHs were injected sequentially with increasing concentrations ranging between 0.125 and 2 μM in a single cycle, with regeneration (3 successive washes of 1M NaCl) between each VHH. On the other hand, VHH Z70 was immobilized on a CMS chip in HBS-EP+ buffer (GE Healthcare) and increasing concentrations, ranging between 0.125 and 2 μM of the SUMO-Tau peptide, were successively injected. Single-Cycle Kinetics (SCK) analysis⁵² was performed to determine association kon and dissociation Koff rate constants by curve fitting of the sensorgrams using the 1:1 Langmuir model of interaction of the BIAevaluation sotware 2.0 (GE Healthcare). Dissociation equilibrium constants (KD) was calculated as kon/Koff.

Assay [3] deals with T2, His-SUMO-Tau peptide Tau[273-318] (human, UniProt O02828 235-280 (Capra hircus entry), not fully specified).
T2 construct: SUMO domain fused at its C-terminus to the Tau peptide [273-318]; also called fused peptide; not shown: The N-terminal HisTag, the SUMO3 domain and any linker from vector pETNKI-HisSUMO3-LIC
T2 peptide: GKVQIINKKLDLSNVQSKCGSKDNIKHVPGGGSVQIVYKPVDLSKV
Briefly: SPR, single-cycle kinetics, VHH Z70 immobilized on the chip, SUMO-Tau[273-318] injected 0.125-2 µM. The method, then:
as §1, with “[…]. […]” for “kon/Koff.”

Assay [4] concerns the target T1, recombinant full-length Tau protein, …. Briefly: SPR (Biacore T200), single-cycle kinetics, biotinylated Tau on streptavidin chip, VHH injected 0.125-2 µM. The protocol: as §1, with “VHH.” for “VHH. On the other hand, VHH Z70 was immobilized on a CMS chip in HBS-EP+ buffer (GE Healthcare) and increasing concentrations, ranging between 0.125 and 2 μM of the SUMO-Tau peptide, were successively injected.”, “(Kd)” for “(KD)”
This is another data set of the same source. In general terms: SPR reads the build-up and loss of mass on a sensor chip optically.

Assay [5] shares this target. Kind of assay: SPR, biotinylated Tau on streptavidin chip (the best mutant is Mut1 by Table 4). The method, then:
as §1, with “VHH.” for “VHH. On the other hand, VHH Z70 was immobilized on a CMS chip in HBS-EP+ buffer (GE Healthcare) and increasing concentrations, ranging between 0.125 and 2 μM of the SUMO-Tau peptide, were successively injected.”, “(Kd)” for “(KD)”
A mutant library of VHH Z70 has been screened for mutants displaying a stronger affinity in yeast two-hybrid system as described above. 8 mutants were selected and their affinity have been further characterized using SPR experiments.

T1 sequence (P10636 other isoform, or with tags, fused parts or gaps limits assumed): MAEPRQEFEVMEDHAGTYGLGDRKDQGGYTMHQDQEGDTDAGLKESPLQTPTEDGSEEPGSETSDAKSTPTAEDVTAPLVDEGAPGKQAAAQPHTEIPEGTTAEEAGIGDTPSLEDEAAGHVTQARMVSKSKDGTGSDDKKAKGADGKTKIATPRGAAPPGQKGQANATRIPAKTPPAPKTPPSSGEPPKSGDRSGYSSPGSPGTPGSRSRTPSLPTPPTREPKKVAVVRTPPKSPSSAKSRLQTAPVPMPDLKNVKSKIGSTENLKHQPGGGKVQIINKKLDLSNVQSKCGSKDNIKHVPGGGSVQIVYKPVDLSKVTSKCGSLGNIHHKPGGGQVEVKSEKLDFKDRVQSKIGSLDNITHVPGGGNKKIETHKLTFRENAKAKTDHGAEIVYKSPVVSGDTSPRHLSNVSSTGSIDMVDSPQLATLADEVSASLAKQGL

B1: VHH E4-1 (VHH)
VHH: EVQLQASGGGFVQPGGSLRLSCAASGATSTFDGMGWFRQAPGKEREFVSAISYEQGSYTYYADSVKGRFTISRDNSKNTVYLQMNSLRAEDTATYYCAPAYEGDLYAFDSYWGQGTQVTVSS
notes: Selected from the synthetic Nali-H1 phage library; also called lead VHH E4-1
B1: in assay [1], the “Thioflavin T fluorescence signal (% of positive control), 1:1 Tau:VHH E4-1 molar ratio” value worked out at 58.3%; the “maximal Thioflavin T fluorescence signal (% of positive control), molar ratio 1:0.25 Tau:VHH E4-1” value is 86.9%; the “time to gain 50% of maximal Thioflavin T signal, 1:1 Tau:VHH E4-1 molar ratio” value is more than 12.8 h; the “time to gain 50% of maximal Thioflavin T signal, molar ratio 1:0.25 Tau:VHH E4-1 (2.5 h for the positive control)” value was approximately 3.8 h. In assay [2], the Kd amounted to 345 nM, the koff came out at 0.0017 s⁻¹ and the kon worked out at 4980 M⁻¹ s⁻¹.

B2: VHH Z70 (VHH)
VHH: EVQLQASGGVFVQSGGSLRLSCAASGATSTFDGMGWFRQAPGKEREFVSAISYEQGSYTYYADSVKGRFTISRDNSKNMVYLQMNSLRAEDTATYYCAPAYEGDLYAFDSYGGQGTQVTVSS
notes: E4-1 with G12V, P16S, T81M and W114G; It may be the form actually produced from pHEN2; also called single domain antibody Z70; optimized VHH Z70
For the molecule B2, the “maximal Thioflavin T fluorescence signal (% of positive control), 1:1 Tau:VHH Z70 molar ratio” value in assay [1] turned out to be 4.1%. The Kd in assay [3] amounted to 85 nM. Besides, in assay [2], the Kd was 147 nM, the koff is 0.0026 s⁻¹ and the kon turned out to be 18100 M⁻¹ s⁻¹. Also, in assay [4], the dissociation constant (Kd) is 147 nM, the koff turned out to be 0.00267 s⁻¹ and the on-rate (kon) was 18100 M⁻¹ s⁻¹.

B3: VHH Mut9 (VHH)
VHH: EVQLQASGGVFVQSGGSLRLSCAASGATSTFDGMGWFRQAPGKEREFVSAISYEQGSYTYYADSVKGRFTISRDNSKNMVYLQMNSLRAEDTATYYCASAYEGDLYAFDSYGEQGTQVTVSS
notes: Variant of Z70; also called VH Mut9
Turning to B3, in assay [4], the dissociation constant (Kd) was 51 nM, the off-rate (koff) came out at 0.00205 s⁻¹ and the on-rate (kon) was 40100 M⁻¹ s⁻¹.

B4: VHH Mut20 (VHH)
VHH: EVQLQASGGVFVQSGGSLRLSCAASGATSTFDGMGWFRQAPGKEKEFVSAISYEQGSYTYYADSVKGRFTISRDNSKNMVYLQMNSLRAEDTATYYCAPAYEGDLYAFDSYGEQGTQVTVSS
notes: Variant of Z70; also called VH Mut20
On to B4, for which, in assay [4], the Kd amounted to 41.8 nM, the koff is 0.00089 s⁻¹ and the on-rate constant (kon) came to 21200 M⁻¹ s⁻¹.

B5: VHH Mut1 (VHH)
VHH: EVQLQASGGVFVQSGGSLRLSCAASGATSTFDGMGWFRQAPGKEREFVSAISYEQGSYTYYADSVKGRFTISRDNSKNMVYLQMNSLRAEDTATYYCAPAYEGDLYAFDSYGEQGTQVTVSS
notes: Variant of Z70; also called VH Mut1
On to B5, for which the “fold improvement of KD against VHH Z70” value in assay [5] was more than 6 fold. In assay [4], the Kd was 22.6 nM, the off-rate constant (koff) is 0.00242 s⁻¹ and the kon came to 107000 M⁻¹ s⁻¹.

B6: VHH Mut3 (VHH)
VHH: EVQLQASGGVFVQSGGSLRLSCAASGATSTFDGMGWFRQAPGKEKEFVSAISYEQGSYTYYADSVKGRFTISRDNSKNMVYLQMNSLRAEDTATYYCAPAYEGDLYAFDSYGGQGTQVTVSS
notes: Variant of Z70; also called VH Mut3
For the molecule B6, in assay [4], the equilibrium dissociation constant (Kd) worked out at 80.5 nM, the koff turned out to be 0.0021 s⁻¹ and the association rate constant (kon) amounted to 26000 M⁻¹ s⁻¹.

B7: VHH Mut15 (VHH)
VHH: EVQLQASGGVFVQSGGSLRLSCAASGATSTFDGMGWFRQAPGKEREFVSAISYEQGSYTYYADSVKGRFTISRDNSKNMVYLQMNSLGAEDTATYYCASAYEGDLYAFDSYEGQGTQVTVSS
notes: Variant of Z70; also called VH Mut15
For B7, in assay [4], the dissociation constant Kd worked out at 95.6 nM, the koff turned out to be 0.00203 s⁻¹ and the on-rate constant (kon) stood at 21300 M⁻¹ s⁻¹.

B8: VHH Mut12 (VHH)
VHH: AEVQLQASGGVFVQSGGSLRLCCAASGATSTFDGMGWFRQAPGKEREFVSAISYEQGSYTYYADSVKGRFTISRDNSKNMVYLQMNSLRAEDTATYYCAPAYEGDLYAFDSYGEQGTQVTVSS
notes: Variant of Z70; also called VH Mut12
Turning to B8, in assay [4], the equilibrium dissociation constant (Kd) turned out to be 61.1 nM, the koff was determined as 0.00207 s⁻¹ and the kon is 33900 M⁻¹ s⁻¹.

B9: VHH Mut14 (VHH)
VHH: EVQLQASGGVFVQSGGSLRLSCAASGATSIFDGMGWFRQAPGKEREFVSAISYGQGSYTYYADSVKGRFTISRDNSKNMVYLQMNSLRAEDTATYYCAPAYEGDLYAFDSYGEQGTQVTVSS
notes: Variant of Z70; also called VH Mut14
Consider B9, for which, in assay [4], the equilibrium dissociation constant (Kd) was 74.2 nM, the koff was found to be 0.0014 s⁻¹ and the on-rate (kon) was 18800 M⁻¹ s⁻¹.

B10: VHH Mut5 (VHH)
VHH: EVQLQASGGVFVQSGGSLRLSCAASGATSTFDGMGWFRQAPGKEREFVSAISYEQGSYTYYADSVKGRFTISRDNSKNMVYLQMNSLRAEDTASYYCAPAYEGDLYAFDSYGGQGTQVTVSS
notes: Variant of Z70; also called VH Mut5
For the molecule B10, in assay [4], the Kd stood at 80.8 nM, the koff turned out to be 0.000883 s⁻¹ and the kon came to 10900 M⁻¹ s⁻¹.

By Kd is commonly meant a measure of binding affinity in units of concentration. As a reminder, the koff is the first-order rate constant of dissociation. As usually defined, the kon is a measure of how fast the partners come together.
